One may read the stoichiometry N as a count of units in the complex or per binding partner.

The values below come from PMC6091870 (Cell reports, 2018).

The series “native gel or EMSA” deals with the molecule itself. Kind of series: native gel or EMSA. (A gel shift assay detects complexes by their altered migration in electrophoresis.)
Series [1] deals with T1, ACAD9 (mouse (endogenous in mouse heart)), Q8JZN5.
T1 chain: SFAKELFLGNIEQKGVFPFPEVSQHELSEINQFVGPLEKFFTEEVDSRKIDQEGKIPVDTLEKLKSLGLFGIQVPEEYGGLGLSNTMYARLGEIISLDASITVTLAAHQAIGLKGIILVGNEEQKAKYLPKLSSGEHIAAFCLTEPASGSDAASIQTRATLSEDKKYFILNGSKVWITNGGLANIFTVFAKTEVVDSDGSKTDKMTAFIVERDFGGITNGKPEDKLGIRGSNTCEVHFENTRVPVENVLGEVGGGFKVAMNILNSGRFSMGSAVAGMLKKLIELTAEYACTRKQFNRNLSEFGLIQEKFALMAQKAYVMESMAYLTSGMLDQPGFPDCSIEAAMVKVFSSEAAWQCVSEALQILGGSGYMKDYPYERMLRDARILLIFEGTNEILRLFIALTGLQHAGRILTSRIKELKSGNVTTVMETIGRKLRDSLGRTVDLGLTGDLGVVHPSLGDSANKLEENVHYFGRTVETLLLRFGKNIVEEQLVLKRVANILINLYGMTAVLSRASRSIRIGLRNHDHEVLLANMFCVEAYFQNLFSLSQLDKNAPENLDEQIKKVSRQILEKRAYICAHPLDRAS
Kind of series: native gel or EMSA. To be noted: remark: other sources report otherwise.

B1: oxoglutarate dehydrogenase (OGDH) (enzyme, mouse (endogenous in mouse heart), UniProt Q60597 41-1023, looked up)
chain: SAPVAAEPFLSGTSSNYVEEMYCAWLENPKSVHKSWDIFFRNTNAGAPPGTAYQSPLSLSRSSLATMAHAQSLVEAQPNVDKLVEDHLAVQSLIRAYQIRGHHVAQLDPLGILDADLDSSVPADIISSTDKLGFYGLHESDLDKVFHLPTTTFIGGQEPALPLREIIRRLEMAYCQHIGVEFMFINDLEQCQWIRQKFETPGIMQFTNEEKRTLLARLVRSTRFEEFLQRKWSSEKRFGLEGCEVLIPALKTIIDMSSANGVDYVIMGMPHRGRLNVLANVIRKELEQIFCQFDSKLEAADEGSGDMKYHLGMYHRRINRVTDRNITLSLVANPSHLEAADPVVMGKTKAEQFYCGDTEGKKVMSILLHGDAAFAGQGIVYETFHLSDLPSYTTHGTVHVVVNNQIGFTTDPRMARSSPYPTDVARVVNAPIFHVNSDDPEAVMYVCKVAAEWRNTFHKDVVVDLVCYRRNGHNEMDEPMFTQPLMYKQIRKQKPVLQKYAELLVSQGVVNQPEYEEEISKYDKICEEAFTRSKDEKILHIKHWLDSPWPGFFTLDGQPRSMTCPSTGLEEDVLFHIGKVASSVPVENFTIHGGLSRILKTRRELVTNRTVDWALAEYMAFGSLLKEGIHVRLSGQDVERGTFSHRHHVLHDQNVDKRTCIPMNHLWPNQAPYTVCNSSLSEYGVLGFELGFAMASPNALVLWEAQFGDFNNMAQCIIDQFICPGQAKWVRQNGIVLLLPHGMEGMGPEHSSARPERFLQMCNDDPDVLPDLQEENFDINQLYDCNWIVVNCSTPGNFFHVLRRQILLPFRKPLIVFTPKSLLRHPEARTSFDEMLPGTHFQRVIPENGPAAQDPHKVKRLLFCTGKVYYDLTRERKARNMEEEVAITRIEQLSPFPFDLLLKEAQKYPNAELAWCQEEHKNQGYYDYVKPRLRTTIDRAKPVWYAGRDPAAAPATGNKKTHLTELQRFLDTAFDLDAFKKFS
Take B1: the “stoichiometry N” value in “native gel or EMSA” turned out to be 2.

B2: ACAD9, Q8JZN5 42-625 (enzyme)
chain: SFAKELFLGNIEQKGVFPFPEVSQHELSEINQFVGPLEKFFTEEVDSRKIDQEGKIPVDTLEKLKSLGLFGIQVPEEYGGLGLSNTMYARLGEIISLDASITVTLAAHQAIGLKGIILVGNEEQKAKYLPKLSSGEHIAAFCLTEPASGSDAASIQTRATLSEDKKYFILNGSKVWITNGGLANIFTVFAKTEVVDSDGSKTDKMTAFIVERDFGGITNGKPEDKLGIRGSNTCEVHFENTRVPVENVLGEVGGGFKVAMNILNSGRFSMGSAVAGMLKKLIELTAEYACTRKQFNRNLSEFGLIQEKFALMAQKAYVMESMAYLTSGMLDQPGFPDCSIEAAMVKVFSSEAAWQCVSEALQILGGSGYMKDYPYERMLRDARILLIFEGTNEILRLFIALTGLQHAGRILTSRIKELKSGNVTTVMETIGRKLRDSLGRTVDLGLTGDLGVVHPSLGDSANKLEENVHYFGRTVETLLLRFGKNIVEEQLVLKRVANILINLYGMTAVLSRASRSIRIGLRNHDHEVLLANMFCVEAYFQNLFSLSQLDKNAPENLDEQIKKVSRQILEKRAYICAHPLDRAS
Regarding B2, the stoichiometry N in series [1] was found to be 2.
